The target in assay [1] is MCL-1 (Homo sapiens), Q07820. Briefly: ITC. The conditions noted are these: modification not given.
In assay [2] the target is MCL-1 (Homo sapiens), Q07820. In words: fluorescence anisotropy competition. The conditions noted are these: modification not given.

Where only a bound is given, the exact number is not on record here.

Sequence of MCL-1 (Homo sapiens), Q07820 (Q07820 whole entry): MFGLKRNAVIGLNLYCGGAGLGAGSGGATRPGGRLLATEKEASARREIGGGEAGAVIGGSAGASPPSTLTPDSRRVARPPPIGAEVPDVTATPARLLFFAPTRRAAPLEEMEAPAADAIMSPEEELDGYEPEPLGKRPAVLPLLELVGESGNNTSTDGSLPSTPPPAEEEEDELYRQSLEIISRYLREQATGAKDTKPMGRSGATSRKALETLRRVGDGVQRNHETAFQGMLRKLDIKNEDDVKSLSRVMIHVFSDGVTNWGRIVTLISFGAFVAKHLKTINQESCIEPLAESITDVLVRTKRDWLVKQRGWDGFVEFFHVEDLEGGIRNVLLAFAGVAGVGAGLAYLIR

CAQWRRIGDKVNLRQKLLN [NOXA75–93 L78W 75-93, Q9JM54] showed a dissociation constant (Kd) in assay [1] of 2400 nM. In addition, in assay [2], the IC50 was 2200 nM. The like results for CAQLRRIGDKFNLRQKLLN [NOXA75–93 V85F 75-93, Q9JM54] were, in that order, 800 nM and over 20000 nM.

As to CAQYRRIGDKVNLRQKLLN [NOXA75–93 L78Y 75-93, Q9JM54], the IC50 in assay [2] was over 100000 nM. In turn, CAQFRRIGDKVNLRQKLLN [NOXA75–93 L78F 75-93, Q9JM54] had a Kd in assay [1] of 1700 nM. In assay [2], this molecule showed an IC50 of 2700 nM.

The values are drawn from publication PMC8495968, “Towards optimizing peptide-based inhibitors of protein–protein interactions: predictive saturation variation scanning (PreSaVS)” (RSC Chemical Biology, 2021).
